Measured values taken from patent publication US20200157223A1.

The substances below were run against CD47 on the cell surface (A431, Raji, SKBR-3, NCI-H441, NK92MI-CD16a cells) (human) (UniProt Q08722) (assay: cell-based or functional assay).

Chain of Anti-PD-L1(12A4)-Fc1-D1-D2-D3-Fc2 (bispecific antibody) (chain): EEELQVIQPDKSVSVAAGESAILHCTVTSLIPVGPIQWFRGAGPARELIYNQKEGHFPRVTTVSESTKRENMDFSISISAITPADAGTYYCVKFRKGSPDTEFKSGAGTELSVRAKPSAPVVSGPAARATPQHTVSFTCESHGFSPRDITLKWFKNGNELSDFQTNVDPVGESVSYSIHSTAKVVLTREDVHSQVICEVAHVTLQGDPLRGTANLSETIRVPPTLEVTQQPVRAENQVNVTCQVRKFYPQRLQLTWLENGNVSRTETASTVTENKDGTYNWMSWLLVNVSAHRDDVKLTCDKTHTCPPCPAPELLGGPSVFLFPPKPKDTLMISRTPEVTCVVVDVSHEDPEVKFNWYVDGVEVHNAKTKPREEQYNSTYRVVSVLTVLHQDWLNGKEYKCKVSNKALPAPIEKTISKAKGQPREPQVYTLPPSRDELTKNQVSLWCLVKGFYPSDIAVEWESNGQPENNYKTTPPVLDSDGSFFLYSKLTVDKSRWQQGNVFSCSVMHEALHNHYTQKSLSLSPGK
Chain of Anti-PD-L1(12A4)-Fc1-D1-D2-Fc2 (bispecific antibody) (chain): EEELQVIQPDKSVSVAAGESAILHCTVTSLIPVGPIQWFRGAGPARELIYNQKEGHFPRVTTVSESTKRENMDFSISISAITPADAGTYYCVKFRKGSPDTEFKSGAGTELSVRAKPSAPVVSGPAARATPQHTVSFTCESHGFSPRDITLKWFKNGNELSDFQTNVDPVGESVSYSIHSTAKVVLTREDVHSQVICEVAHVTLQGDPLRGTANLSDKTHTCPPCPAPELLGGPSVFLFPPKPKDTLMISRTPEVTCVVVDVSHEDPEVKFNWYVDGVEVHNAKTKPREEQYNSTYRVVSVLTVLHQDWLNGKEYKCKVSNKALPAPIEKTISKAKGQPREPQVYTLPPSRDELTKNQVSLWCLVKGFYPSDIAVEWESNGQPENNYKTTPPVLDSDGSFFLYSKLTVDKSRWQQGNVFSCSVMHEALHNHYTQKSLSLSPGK
Chain of Anti-PD-L1(12A4)-Fc1-D1-Fc2 (bispecific antibody) (chain): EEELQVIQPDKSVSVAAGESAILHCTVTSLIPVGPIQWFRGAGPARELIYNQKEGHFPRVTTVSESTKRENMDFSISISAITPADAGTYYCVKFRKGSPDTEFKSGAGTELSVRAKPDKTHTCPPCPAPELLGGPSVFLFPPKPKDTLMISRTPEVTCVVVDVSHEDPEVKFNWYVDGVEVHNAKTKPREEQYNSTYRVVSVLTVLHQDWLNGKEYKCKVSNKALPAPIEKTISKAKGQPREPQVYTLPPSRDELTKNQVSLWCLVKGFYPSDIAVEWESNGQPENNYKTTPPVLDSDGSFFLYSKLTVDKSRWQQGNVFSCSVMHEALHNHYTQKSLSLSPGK

| Substance | toxic side effects caused by NK cells (ADCC on NK92MI-CD16a cells), reduction against the D1^m proteins [fold] |
| --- | --- |
| Anti-PD-L1(12A4)-Fc1-D1-D2-D3-Fc2 (bispecific antibody) | > 1000 |
| Anti-PD-L1(12A4)-Fc1-D1-Fc2 (bispecific antibody) | > 1000 |
| Anti-PD-L1(12A4)-Fc1-D1-D2-Fc2 (bispecific antibody) | > 1000 |
